From patent publication US7888089B2, “eNOS mutations useful for gene therapy and therapeutic screening” (Yale University, priority 1999, dated 2011)
Where a chain is given by its changes, count along the chain named. Numbers in names are those of the source.

Assays:
[1] = test system: COS cells; test: cGMP accumulation in transfected COS cells as bioassay for NO; type: cell-based; conditions: eNOS alone or eNOS with Akt construct
Description: (§1) Cell Transfections: The bovine eNOS, human iNOS, rat nNOS cDNAs in pcDNA3 and HA-tagged wild-type Akt, Akt (K179M) or myr-Akt in pCMV6 were generated by standard cloning methods. The myr-nNOS in pcDNA3 was generated by PCR, incorporating a new amino terminus containing the eNOS N-myristoylation consensus site (MGNLKSVG, SEQ ID NO:1) fused in frame to the second amino acid of the nNOS coding sequence. […] Mutation of the putative Akt phosphorylation sites in eNOS were generated using the Quick Change site-directed mutagenesis kit (Stratagene) according to the manufacturers instructions. All mutants were verified by DNA sequencing. COS-7 cells were plated (100 mm dish) and transfected with the NOS (7.5-30 mg) and Akt (1 mg) plasmids using calcium phosphate. To balance all transfections, the expression vector for β-galactosidase cDNA was used. Twenty-four to forty-eight hours after transfection, the expression of appropriate proteins (40-80 mg) were confirmed by Western blot analysis using eNOS mAb (9D10, Zymed), HA mAb (12CA5, Boehringer Mannheim), iNOS pAb (Zymed Laboratories) or nNOS mAb (Zymed Laboratories).
NO release from transfected COS cells: 24-48 hrs after transfection, media was processed for the measurement of nitrite (NO2^−), the stable breakdown product of NO in aqueous solution, by NO specific chemiluminescence as described (Sessa et al., 1995). […]

[2] = test system: COS-7 cells; test: NO release (NO2−, chemiluminescence) from transfected COS cells; type: cell-based; conditions: NOS construct co-transfected with Akt
Description: as §1
NO release from transfected COS cells: 24-48 hrs after transfection, media was processed for the measurement of nitrite (NO2^−), the stable breakdown product of NO in aqueous solution, by NO specific chemiluminescence as described (Sessa et al., 1995). Media was deproteinized and samples containing NO2^− were refluxed in glacial acetic acid containing sodium iodide. […] In all experiments, NO2^− release was inhibitable by a NOS inhibitor. In addition, NO2^−-release from cells transfected with the β-galactosidase cDNA was subtracted to control for background levels of NO2^− found in serum or media. In some experiments, cGMP accumulation in COS was used as a bioassay for the production of NO as described.

B1: Wild type: Wild type bovine endothelial nitric oxide synthase (eNOS) (protein, UniProt P29473 2-1205, looked up)
Nitric oxide synthase 3: GNLKSVGQEPGPPCGLGLGLGLGLCGKQGPASPAPEPSRAPAPATPHAPDHSPAPNSPTLTRPPEGPKFPRVKNWELGSITYDTLCAQSQQDGPCTPRCCLGSLVLPRKLQTRPSPGPPPAEQLLSQARDFINQYYSSIKRSGSQAHEERLQEVEAEVASTGTYHLRESELVFGAKQAWRNAPRCVGRIQWGKLQVFDARDCSSAQEMFTYICNHIKYATNRGNLRSAITVFPQRAPGRGDFRIWNSQLVRYAGYRQQDGSVRGDPANVEITELCIQHGWTPGNGRFDVLPLLLQAPDEAPELFVLPPELVLEVPLEHPTLEWFAALGLRWYALPAVSNMLLEIGGLEFSAAPFSGWYMSTEIGTRNLCDPHRYNILEDVAVCMDLDTRTTSSLWKDKAAVEINLAVLHSFQLAKVTIVDHHAATVSFMKHLDNEQKARGGCPADWAWIVPPISGSLTPVFHQEMVNYILSPAFRYQPDPWKGSATKGAGITRKKTFKEVANAVKISASLMGTLMAKRVKATILYASETGRAQSYAQQLGRLFRKAFDPRVLCMDEYDVVSLEHEALVLVVTSTFGNGDPPENGESFAAALMEMSGPYNSSPRPEQHKSYKIRFNSVSCSDPLVSSWRRKRKESSNTDSAGALGTLRFCVFGLGSRAYPHFCAFARAVDTRLEELGGERLLQLGQGDELCGQEEAFRGWAKAAFQASCETFCVGEEAKAAAQDIFSPKRSWKRQRYRLSTQAEGLQLLPGLIHVHRRKMFQATVLSVENLQSSKSTRATILVRLDTAGQEGLQYQPGDHIGICPPNRPGLVEALLSRVEDPPPPTESVAVEQLEKGSPGGPPPSWVRDPRLPPCTLRQALTFFLDITSPPSPRLLRLLSTLAEEPSEQQELETLSQDPRRYEEWKWFRCPTLLEVLEQFPSVALPAPLLLTQLPLLQPRYYSVSSAPNAHPGEVHLTVAVLAYRTQDGLGPLHYGVCSTWLSQLKTGDPVPCFIRGAPSFRLPPDPYVPCILVGPGTGIAPFRGFWQERLHDIESKGLQPAPMTLVFGCRCSQLDHLYRDEVQDAQERGVFGRVLTAFSREPDSPKTYVQDILRTELAAEVHRVLCLERGHMFVCGDVTMATSVLQTVQRILATEGDMELDEAGDVIGVLRDQQRYHEDIFGLTLRTQEVTSRIRTQSFSLQERHLRGAVPWAFDPPGPDTPGP
[1]
  cGMP accumulation: 5.5±0.8 pmol cGMP/mg protein

B2: S1179D: bovine eNOS with serine 1179 mutated to aspartic acid (protein)
chain: B1 Nitric oxide synthase 3 with S1178D
[2]
  Akt dependent NO release / activation of NOS construct: partially mimics the activation state induced by Akt
